Tests used:
[1] = Hydration of lysozyme particles through planar microporous membrane (dual sub-chamber device of FIG. 1); assay type: physicochemical
Excerpt: The data presented in FIG. 3 is illustrative of zero-order hydration of the surrogate molecule lysozyme using the planar version of the microporous membrane shown in FIG. 1. In this experiment, three identical acrylic chambers were used, each chamber including two subchambers separated by a planar microporous membrane. The microporous membrane was a Whatman 1PS Phase Separator having a diameter of […] (area=113 mm^2).
The lower portion of the chamber (i.e., the lower sub-chamber) was filled with 2.7 milliliters of the water-immiscible solvent, perfluorodecalin. Suspended in this solvent were 20 mg of solid lysozyme particles having an average particle size of 90 micrometers. The range of particle sizes was 75 to 105 micrometers. […] The upper portion of the chamber (i.e., the upper sub-chamber) contained 0.3 milliliters of phosphate buffered saline solution. A stirring bar was placed in the lower sub-chamber of each device to agitate the solvent at ambient temperature during the fifty-two day test period. After thirty-seven days, stirring was stopped to determine whether or not agitation had any effect on the hydration rate. The buffer solution in the upper sub-chamber of each device was removed each day and replaced with a fresh supply of solution. The lysozyme content of the upper sub-chamber samples was analyzed periodically to determine the quantity of lysozyme material that had dissolved in a one-day time period. The daily mass of lysozyme that was present in the upper sub-chamber was added to the sum of the previous days, thus the data in FIG. 3 represents the total mass of hydrated lysozyme.
The effect of longer release periods is substantially equivalent to determining the release rate with decreasing amounts of lysozyme present in the device enclosure. To determine release variations over longer periods of time, additional planar-membrane, dual-chamber experiments were conducted using different initial amounts of lysozyme loaded, i.e., suspended, in the perfluorodecalin used to fill the lower sub-chamber. […] These average hydration rates are plotted in FIG. 5 as a function of the amount of mass loaded (100%=20 mg).

[2] = Hydration of lysozyme particles from cylindrical capsule-like microporous membrane packet (FIG. 2); assay type: physicochemical
Method: FIG. 6 provides hydration results for a device utilizing the three-dimensional capsule-like embodiment of the microporous membrane (see FIG. 2). For this experiment, a section of Whatman 1PS Phase Separator membrane was formed into a cylinder and sealed lengthwise and at both ends. The resulting cylinder was 10 mm in length and 4 mm in diameter (125 mm^2 membrane area). The cylinder was filled with approximately 1.4 mg of solid lysozyme having an average particle size of 90 micrometers combined with approximately 125 μl of the water-immiscible solvent perfluorodecalin,
The particle-filled cylinder described above was placed in a well containing 1.5 milliliters of phosphate buffered saline. A series of 70 μl samples were removed from the well at various time intervals. These samples were analyzed, and the results in FIG. 6 are the summation of mass hydrated as a function of time. Approximately 2.6 μg of lysozyme per day (i.e., 0.021 μg/mm^2) was hydrated after a nine-day delay. This observed rate is a factor of four less than the hydration rate observed in the previously discussed planar membrane experiments; however, because the entire membrane area was not active for the cylinder-shaped membrane, the release per unit area data is in reasonable agreement bwtween the two experiments. Thus, the data shown in FIGS. 4-6 provide a clear indication that the devices shown in FIGS. 1 and 2 are capable of providing the long-term zero-order release desired for an implantable drug-delivery device.

With lysozyme the “hydration rate relative to its original value” ([1]; 2 mg loaded (10% of 20 mg)) was 83%, the hydration rate ([1]; 2 mg suspended lysozyme, planar membrane) was 7.7 micrograms/day and the hydration rate ([1]; 5 mg suspended lysozyme, planar membrane) was 8.9 micrograms/day. The lysozyme mass hydrated ([1]; 20 mg loaded, over the fifty-two day testing period) was 2%, the “initial delay before hydration” value ([1]; 20 mg lysozyme loaded, planar membrane) was “eight to fourteen” and the “average hydration rate per membrane area” value ([1]; 20 mg lysozyme loaded, planar membrane area 113 mm^2) was 0.082 ug/day/mm^2. The average hydration rate ([1]; 20 mg solid lysozyme particles loaded in perfluorodecalin, planar Whatman 1PS membrane, PBS, ambient temperature, 52 day test) was 9.3 micrograms per day, the “decrease of hydration rate” value ([1]; during the time the mass of lysozyme decreases by 80%) was 4% and the “lysozyme hydrated per day” value ([2]; approx. 1.4 mg lysozyme in approx. 125 μl perfluorodecalin, cylinder 125 mm^2 Whatman 1PS, 1.5 ml PBS) was “Approximately 2.6 μg per day”. The “factor by which rate is less than the planar membrane hydration rate” value ([2]; cylinder versus planar membrane experiments) was “four”, the delay before hydration ([2]; cylinder-shaped membrane) was “nine” and the “lysozyme hydrated per membrane area” value ([2]; cylinder-shaped membrane, 125 mm^2 membrane area) was roughly 0.021 μg/mm^2.

Source: patent publication US20050118229A1, “Implantable drug delivery device for sustained release of therapeutic agent” (iMEDD, Inc., priority 2003, published 2005)
